Source: patent publication US20230183353A1 (ZYDUS LIFESCIENCES, published 2023)
Where a chain is given by its changes, count along the chain named. In names and notes the source's numbering stands.

Tests used:
[1] = molecular target: T1, recombinant human neonatal Fc receptor (rhFcRn) (human, UniProt P55899 24-297; P61769 21-119); assay: SPR (ProteOn XPR36), rhFcRn immobilised on GLC chip, pH 6.0, 25 C
T1 construct: Bought recombinant protein (Sino Biologics), immobilised on a GLC chip; also called Human FcRn; FcRn/FcGRT
Description: The kinetic constants for the binding of Fc variants to recombinant human neonatal Fc receptor (rhFcRn) were determined by Surface Plasmon Resonance-based measurement using the ProteOn™ XPR36 (Bio-Rad). The rhFcRn receptor (Sino Biologics) was immobilized on a GLC chip following manufacturer's instruction. 10 mM phosphate buffer saline (PBS) (10 mM phosphate buffer, pH 6.0, 150 mM NaCl, with 0.005% Tweet 20) was used as running buffer to carry out the kinetic measurements. […] Reactions were carried in PBS (pH 6.0, 0.005% surfactant P20) at 25° C. After each sample run, the chip surface was regenerated using two pulses of PBS (0.005% surfactant P20), pH 7.4, followed by one pulse of glycine buffer pH 1.5. The data, in the form of sensograms, was analysed using the data-fitting programs in the ProteOn™ system.

[2] = molecular target: T2, recombinant human FcγRIIIa (Phe) (human, UniProt P08637 17-208, limits assumed); assay: SPR (ProteOn), receptor immobilised on GLC chip by amine coupling, pH 7.4, 25 C
T2 construct: Directly immobilised on a GLC chip by amine coupling; also called FcγRIIIa F158; CD16a
Description: (§1) In this experiment, the kinetic constants for the binding of Fc variant to recombinant Fc gamma receptors were determined by Surface Plasmon Resonance-based measurement using the ProteOn™ […] (Bio-Rad). […] All the recombinant human Fc receptors were directly immobilized on a GLC sensor chip surface using a standard amine coupling chemistry, and essentially, following the manufacturers' instruction. 10 mM phosphate buffered saline (PBS) (10 mM phosphate buffer, pH 7.4, 150 mM NaCl, with 0.005% Tween 20) was used as the running buffer to carry out the kinetic measurements for all the Fc receptor. To measure the association rate constant (kassoc) and dissociation rate constant (kdissoc), five dilutions of Fc variants were prepared in above mentioned running buffer and injected at a flow rate of 50 μL/min. Association time and dissociation time at each interaction is mentioned in table below. All the reactions were performed at 25° C. The data, in the form of sensorgrams, were analyzed using the data-fitting programs available with the ProteOn™ system.

[3] = molecular target: T3, recombinant human FcγRIIIa (Val) (human, UniProt P08637 17-208, limits assumed); assay: as above
T3 construct: Directly immobilised on a GLC chip by amine coupling; also called FcγRIIIa V158; CD16a
Description: as §1

recombinant monkey FcRn = recombinant monkey FcRn (monkey); assay: SPR (ProteOn XPR36), FcRn immobilised on GLC chip by amine coupling, pH 6.0, 25 C
Description: (§2) In this experiment, binding of the Fc variant of the current invention to FcRn of different species was determined by surface plasmon resonance-based measurement using the ProteOn™ XPR36 (Bio-Rad). […] Fc variant used to conduct this experiment was produced using CHO cell as an expression system. FcRn (of different species) was immobilized on a GLC sensor chip surface using a standard amine coupling chemistry, and essentially, following the manufacturers' instruction. 10 mM phosphate buffered saline (PBS) (10 mM phosphate buffer, pH 6.0, 150 mM NaCl, 0.005% Tween 20) was used as the running buffer to carry out the kinetic measurements. To measure the association rate constant (kassoc) and dissociation rate constant (kdissoc), five dilutions of Fc muteins were prepared in above mentioned running buffer and injected at a flow rate of 100 μL/min with an association time of 180 s and dissociation time of 600 s. All the reactions were carried at 25° C. After each sample run, the chip surface was regenerated using PBST, pH 7.4. The data, in the form of sensorgrams, was analyzed using the data-fitting programs in the ProteOn™ system.

[4] = molecular target: T1, recombinant human neonatal Fc receptor …; assay: as above
Description: as §2

recombinant mouse FcRn = recombinant mouse FcRn (mouse, UniProt Q61559 22-297); assay: as above
Description: as §2

T1 sequence (P55899 24-297 limits assumed, chain 1 of 2): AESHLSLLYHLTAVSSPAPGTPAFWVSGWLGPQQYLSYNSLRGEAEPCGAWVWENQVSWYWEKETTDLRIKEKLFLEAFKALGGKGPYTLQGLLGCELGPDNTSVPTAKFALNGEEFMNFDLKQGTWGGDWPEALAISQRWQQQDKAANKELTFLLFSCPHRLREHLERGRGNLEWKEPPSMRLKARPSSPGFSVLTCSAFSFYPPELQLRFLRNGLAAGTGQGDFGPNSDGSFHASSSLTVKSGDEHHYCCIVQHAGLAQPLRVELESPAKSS
T1 sequence (P61769 21-119 limits assumed, chain 2 of 2): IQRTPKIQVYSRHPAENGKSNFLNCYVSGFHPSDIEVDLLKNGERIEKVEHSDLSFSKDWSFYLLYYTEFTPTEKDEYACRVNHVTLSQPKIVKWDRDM
T2 sequence (P08637 17-208 limits assumed): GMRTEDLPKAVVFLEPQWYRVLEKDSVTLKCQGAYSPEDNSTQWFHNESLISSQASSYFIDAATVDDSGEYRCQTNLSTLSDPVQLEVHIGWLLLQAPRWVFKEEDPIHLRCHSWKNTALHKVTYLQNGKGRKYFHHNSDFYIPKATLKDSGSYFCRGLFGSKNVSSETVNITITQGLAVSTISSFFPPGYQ
T3 sequence (P08637 17-208 F176V limits assumed): as the sequence (P08637 17-208 limits assumed) above, with F160V counted along it
Chain of recombinant mouse FcRn (Q61559 22-297): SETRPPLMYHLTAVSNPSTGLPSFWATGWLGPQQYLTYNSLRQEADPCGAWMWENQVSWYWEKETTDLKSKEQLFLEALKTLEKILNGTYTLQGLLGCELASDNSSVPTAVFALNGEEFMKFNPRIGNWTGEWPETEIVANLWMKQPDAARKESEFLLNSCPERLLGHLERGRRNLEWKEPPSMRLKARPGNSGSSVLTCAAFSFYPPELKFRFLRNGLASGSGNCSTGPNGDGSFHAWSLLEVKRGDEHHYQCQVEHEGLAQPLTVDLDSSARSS
Chain of recombinant monkey FcRn (monkey) (Q8SPV9 24-297, chain 1 of 2): as the sequence (P55899 24-297 limits assumed, chain 1 of 2) above, with N39D, E44Q, G99S, S189G, S190N, L217M, S269T counted along it
Chain of recombinant monkey FcRn (monkey) (Q8SPW0 21-119, chain 2 of 2, further chain): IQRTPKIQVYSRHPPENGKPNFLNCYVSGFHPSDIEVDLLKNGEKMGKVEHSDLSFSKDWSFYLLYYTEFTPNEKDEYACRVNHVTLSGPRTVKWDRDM

B1: Fc variant F3-9 (SEQ ID No. 20; L432M/H433P/N434F) (other)
chain: DKTHTCPPCPAPELLGGPSVFLFPPKPKDTLMISRTPEVTCVVVDVSHEDPEVKFNWYVDGVEVHNAKTKPREEQYNSTYRVVSVLTVLHQDWLNGKEYKCKVSNKALPAPIEKTISKAKGQPREPQVYTLPPSRDELTKNQVSLTCLVKGFYPSDIAVEWESNGQPENNYKTTPPVLDSDGSFFLYSKLTVDKSRWQQGNVFSCSVMHEAMPFHYTQKSLSLSPGK
Kd [1]: 3.63 nM

B2: Fc variant H11+A4 (SEQ ID No. 22; T307N/V308P/L309Y/H433R/N434W), Fc monomer (other)
chain: B1 chain with T87N, V88P, L89Y, M212L, P213R, F214W
notes: also called 22b
Kd [2]: 241 nM
Kd [3]: 205 nM
Kd [1]: 0.288 nM
Kd (recombinant monkey FcRn): 0.801 nM
Kd [4]: 0.791 nM
Kd (recombinant mouse FcRn): 0.615 nM
